In paper PMC3937304, “The Secreted Triose Phosphate Isomerase of Brugia malayi Is Required to Sustain Microfilaria Production In Vivo” (PLoS Pathogens, 2014):

System: O=C(CO)COP(=O)(O)O
Experiment: purified protein
Settings: DHAP to G3P direction, 100 mM TEA-HCl pH 7.6, 1 mM EDTA, 1 mM NAD+, 5 mM disodium hydrogen arsenate, 25 °C, 0.16-10 mM DHAP

With “recombinant Ls-TPI (Litomosoides sigmodontis)” the Km was 1933 µM.
In the case of recombinant Bm-TPI (Brugia malayi), the Km is reported as 1800 µM.
